The source of these data is PMC4559962, “Wss1 metalloprotease partners with Cdc48/Doa1 in processing genotoxic SUMO conjugates” (eLife, 2015).

To fix the notation:
B1: HA-Wss1 (recombinant, wild type) (enzyme, S. cerevisiae, UniProt P38838 1-269, looked up)
chain: MKTEGIKSPSAKYHDMAGSQRIPHKNPHIQKVAVLQSKPNKEDALNLIKEIAHKVSYLMKENHFKVTNLVEFYPRDQRLLGMNVNHGSKIMLRLRCSTDEFQFLPMECIMGTMLHELTHNLFGPHDKKFYNKLDELIGRQWVIEQRGLYDTFLGNGQRLGGRANLRSNRYPMTGISTNTGIVRKRGKGVKLGSLHPEGISSIDRGNSPRELAAFAAERRYRDDRWCGETKNNKDQIISDNISSSLEVVILDDDDEVLPGDTLIEVIDLT
notes: Wss1, yeast metalloprotease (WLM family); Produced with the pRSET-B vector; also called WT; WT-Wss1; source: E. coli ArcticExpress (DE3), soluble, purified on anti-HA beads and eluted with HA peptide
B2: MBP-Wss1 (wild type) (enzyme, S. cerevisiae, UniProt P38838 1-269, looked up)
chain: B1 chain
notes: Wss1, yeast metalloprotease; Expressed with the pMAL-c2 vector; also called MBP-Wss1 WT; Wss1-beads (CNBr-crosslinked MBP-Wss1 beads); source: E. coli BL21pLysS (DE3), purified on amylose resin, eluted with maltose
B3: GST-Cdc48 (full length) (enzyme, S. cerevisiae, UniProt P25694 1-835, looked up)
chain: MGEEHKPLLDASGVDPREEDKTATAILRRKKKDNMLLVDDAINDDNSVIAINSNTMDKLELFRGDTVLVKGKKRKDTVLIVLIDDELEDGACRINRVVRNNLRIRLGDLVTIHPCPDIKYATRISVLPIADTIEGITGNLFDVFLKPYFVEAYRPVRKGDHFVVRGGMRQVEFKVVDVEPEEYAVVAQDTIIHWEGEPINREDEENNMNEVGYDDIGGCRKQMAQIREMVELPLRHPQLFKAIGIKPPRGVLMYGPPGTGKTLMARAVANETGAFFFLINGPEVMSKMAGESESNLRKAFEEAEKNAPAIIFIDEIDSIAPKRDKTNGEVERRVVSQLLTLMDGMKARSNVVVIAATNRPNSIDPALRRFGRFDREVDIGIPDATGRLEVLRIHTKNMKLADDVDLEALAAETHGYVGADIASLCSEAAMQQIREKMDLIDLDEDEIDAEVLDSLGVTMDNFRFALGNSNPSALRETVVESVNVTWDDVGGLDEIKEELKETVEYPVLHPDQYTKFGLSPSKGVLFYGPPGTGKTLLAKAVATEVSANFISVKGPELLSMWYGESESNIRDIFDKARAAAPTVVFLDELDSIAKARGGSLGDAGGASDRVVNQLLTEMDGMNAKKNVFVIGATNRPDQIDPAILRPGRLDQLIYVPLPDENARLSILNAQLRKTPLEPGLELTAIAKATQGFSGADLLYIVQRAAKYAIKDSIEAHRQHEAEKEVKVEGEDVEMTDEGAKAEQEPEVDPVPYITKEHFAEAMKTAKRSVSDAELRRYEAYSQQMKASRGQFSNFNFNDAPLGTTATDNANSNNSAPSGAGAAFGSNAEEDDDLYS
notes: Cdc48, AAA ATPase; source: expressed in bacteria, purified
B4: his6-Flag (HF)-Doa1 (natural protein, S. cerevisiae, UniProt P36037 1-715, looked up)
chain: MGYQLSATLKGHDQDVRDVVAVDDSKVASVSRDGTVRLWSKDDQWLGTVVYTGQGFLNSVCYDSEKELLLFGGKDTMINGVPLFATSGEDPLYTLIGHQGNVCSLSFQDGVVISGSWDKTAKVWKEGSLVYNLQAHNASVWDAKVVSFSENKFLTASADKTIKLWQNDKVIKTFSGIHNDVVRHLAVVDDGHFISCSNDGLIKLVDMHTGDVLRTYEGHESFVYCIKLLPNGDIVSCGEDRTVRIWSKENGSLKQVITLPAISIWSVDCMSNGDIIVGSSDNLVRIFSQEKSRWASEDEINELSTQVEKSTISSKTIEFDESKLSPYEILQSPGRKEGQIVVVKSPQGTIEAHQFSNSSWKKVGDVVGAGATGNDKKIEFEGKTYDYVFDVDIEDGKPPLKLPINVSDNPYTAADNFLARYELPMSYRDQVVQFILKNTNGISLDQPNDNASSSAVSPSKTSVMKVLPVKQYLIMENYNPDTIFNGIVKINSNEKTFDDEILAQIGGALHDIDESWELLLSFANTIRSNWEIKTPAYDIVRLIVKKLPYSSDIKDYIEEGLGNKNITLTMLTVRILVNCFNNENWGVKLLESNQVYKSIFETIDTEFSQASAKQSQNLAIAVSTLIFNYSALVTKGNSDLELLPIVADAINTKYGPLEEYQECEEAAYRLTVAYGNLATVEPTLRQFANSVTWLANIKRSYGNVPRFKDIFDDLS
notes: Doa1, Cdc48 cofactor

Common to all, as to conditions: both partners purified
The target of test [1] is B4. The test is described as follows: pull-down; purified HA-Wss1 (full length or truncated) on anti-HA beads with purified His6-Cdc48, GST-Cdc48 or HF-Doa1 (full length or truncated); western blot. (In western blotting, separated proteins are transferred to a membrane and probed.)
Test [2] deals with B4. The test is described as follows: pull-down; purified MBP-Wss1 proteins on amylose beads with purified Cdc48 or adaptor proteins; PAGE with Coomassie staining, western blot with α-His6, ImageJ.
The test “GST-Cdc48 (full length)” deals with B3. Description: pull-down; Cdc48 complexes preformed from purified GST-Cdc48 with a double molar excess of adaptors; MBP-Wss1 added in stoichiometric amount; glutathione beads; PAGE with Coomassie staining, ImageJ.
The test “MBP-Wss1 (wild type)” addresses B2. The test is described as follows: pull-down; purified MBP-Wss1 proteins on amylose beads with purified Cdc48 or adaptor proteins; PAGE with Coomassie staining, western blot with α-His6, ImageJ.

Regarding B1, the binding result in the test with his6-Flag (HF)-Doa1 [1] was “binds”.

With B2, in the test with his6-Flag (HF)-Doa1 [2], the binding result is reported as “binds”. Also, in the test with GST-Cdc48 (full length), the “stoichiometry N” value turned out to be 1.

For the molecule B3, the “stoichiometry N” value with MBP-Wss1 (wild type) is 1.

B4: in the test with GST-Cdc48 (full length), the “stoichiometry N” value is 1.

Usually stoichiometry N stands for a count of units in the complex or per binding partner.
